Kd data for 1 substance are collected here from patent publication US20160030544A1.

As a reminder, the Kd is the free concentration of one partner at which half of the binding sites on the other are occupied at equilibrium, for simple one-to-one binding. Read a high Kd as lower affinity.

In this experiment the target is fH6-7 (factor H CCP domains 6-7) (UniProt P08603). Description: SPR, Biacore 3000, protein on CM5 chip, fH6-7 as analyte. A general note: SPR reads the build-up and loss of mass on a sensor chip optically.
Sequence of fH6-7 (factor H CCP domains 6-7) (P08603 321-443 limits assumed): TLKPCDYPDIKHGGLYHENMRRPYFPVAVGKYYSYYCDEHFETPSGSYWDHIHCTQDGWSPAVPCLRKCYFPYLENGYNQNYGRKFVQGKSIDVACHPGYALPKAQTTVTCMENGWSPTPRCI

Regarding “V3.45 fHbp (variant 3 factor H binding protein of N. meningitidis), recombinant wild type”, the dissociation constant (Kd) worked out at 1 nM. In other words, the single-digit nanomolar range.
